Measured values from PMC6547725.

Target: KRAS (aa 1–170, Homo sapiens), wild type (Homo sapiens) (UniProt P01116)

GTPase activity of KRAS wild type (GTP hydrolysis over time, HPLC) with 0.25 μM RAS-GAP; at 2.5 μM and 25 μM too fast to be resolved: 3.5 fold
Substance: RasGAP (aa 722–1056, Homo sapiens) (domain or fragment)
